From publication PMC12607895

What was measured:
[1] = biological target: CD46 (human) (UniProt P15529); experiment: SPR; Biacore T200; CD46 or CAR amine-coupled to a CM5 chip (2,390-2,640 RU CD46, 2,380-2,870 RU CAR); whole virions as analyte, twofold series 50-12.5 µg/mL, 120 s at 30 µL/min; 25°C, HBS-EP+ (10 mM HEPES, 150 mM NaCl, 3 mM EDTA, 0.005% P20, pH 7.4); performed once
[2] = biological target: coxsackievirus and adenovirus receptor (CAR) (UniProt P78310); experiment: as above
Chain of coxsackievirus and adenovirus receptor (CAR) (P78310 20-365): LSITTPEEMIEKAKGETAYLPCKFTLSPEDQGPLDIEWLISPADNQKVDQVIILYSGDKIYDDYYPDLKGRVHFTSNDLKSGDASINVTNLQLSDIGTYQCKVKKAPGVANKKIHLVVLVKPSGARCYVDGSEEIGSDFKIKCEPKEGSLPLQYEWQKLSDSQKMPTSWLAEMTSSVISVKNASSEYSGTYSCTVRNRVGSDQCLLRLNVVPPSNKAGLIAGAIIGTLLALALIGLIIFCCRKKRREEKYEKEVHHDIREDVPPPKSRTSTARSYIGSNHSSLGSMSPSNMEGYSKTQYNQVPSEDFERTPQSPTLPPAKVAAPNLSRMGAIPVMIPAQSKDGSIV

Chain of CD46 (human) (P15529 35-392): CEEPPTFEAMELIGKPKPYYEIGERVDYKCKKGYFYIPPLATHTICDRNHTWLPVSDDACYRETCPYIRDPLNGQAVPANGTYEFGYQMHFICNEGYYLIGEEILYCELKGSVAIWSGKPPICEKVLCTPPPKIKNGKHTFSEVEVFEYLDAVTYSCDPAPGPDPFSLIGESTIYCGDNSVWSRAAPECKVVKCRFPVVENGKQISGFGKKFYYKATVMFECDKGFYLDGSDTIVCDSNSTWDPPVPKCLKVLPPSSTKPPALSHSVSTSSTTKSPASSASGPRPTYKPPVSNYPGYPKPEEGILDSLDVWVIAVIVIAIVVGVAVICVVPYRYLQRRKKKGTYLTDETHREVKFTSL

Substance	Kd [1]	Kd [2]
HAdV-D39 virion (complex)	0.1 nM	–
HAdV-D37 virion (complex)	0.1 nM	–
HAdV-B11 virion (complex)	0.0048 nM	–
HAdV-D26 virion (complex)	–	0.076 nM
